{
  "source": "paper PMC9785946",
  "about": "“Bioorthogonal Chemistry Approach for the Theranostics of GRPR-Expressing Cancers” (Pharmaceutics, 2022)",
  "key": {"PC3 cells": {"system": "PC3 cells", "experiment": "Cellular uptake, internalization and blocking assays in PC3 cells", "format": "cell-based, human", "conditions": "37 °C", "experimental": "The time-dependent accumulation of ^111In-conjugates in PC3 cells was evaluated according to a previously described procedure. Briefly, PC3 cells were incubated at 37 °C for 5 min to 4 h with about 7.4 kBq of the tested radioconjugates. To assess the surface binding, the cells were treated twice with glycine buffer (50 mM glycine-HCl/100 mM NaCl, pH 2.8). Then, the cells were lysed with NaOH 1 M (internalized radioconjugate). The activity in both cell surface-bound and internalized fractions was measured in a γ-counter and reported as a percentage of the total applied radioactivity. The total cellular uptake was calculated by the addition of the activities recovered from the surface binding and internalized fractions. Assays for each time point were performed in quadruplicate, and data were presented as average ± SD of typically three independent experiments.\nTo assess the specific GRPR-mediated cellular uptake and internalization of radioconjugates (receptor blocking studies), a similar study was performed in which cells were incubated with the [^111In]In-DOTA-Tz-TCO-PEG4-AR for 1, 2 and 4 h, with or without the GRPR agonist Tyr4-Bombesin (0.25 µg/0.5 mL/well)."}, "[1]": {"experimental": "The octanol–water partition coefficients (Po/w) of the radioconjugates (20 µL, typically 1 to 5 MBq) were determined by the “shake-flask” method, as previously described."}, "[2]": {"experiment": "Biodistribution of 111In-radioconjugates/radiocomplex in PC3 xenografts-bearing mice", "format": "in vivo, Balb/c-male nude mice", "conditions": "male, Balb/c nude, mouse, iv, total radioactivity, 1 h p.i.", "excerpt": "(§1) Blood samples were taken by cardiac puncture at sacrifice."}, "[3]": {"system": "PC3 xenografts-bearing mice", "experiment": "Biodistribution of 111In-radioconjugates/radiocomplex in PC3 xenografts-bearing mice", "format": "in vivo, Balb/c-male nude mice", "excerpt": "as §1"}, "in vitro": {"experiment": "in vitro", "conditions": "human, human serum", "description": "The radiochemical stability of the radioconjugates was evaluated in vitro by the incubation of the four radioconjugates at 37 °C in PBS, in cell culture media (CCM) and human serum (HS) for 24 h, followed by HPLC analysis."}, "GRPR": {"system": "GRPR", "design": "method as in PMID 22080443, PMID 9437737", "conditions": "literature value for reference peptide; ref [32],[39]; cited from earlier work"}, "[4]": {"conditions": "1 h p.i., blocking (excess of agonist)"}},
  "note": "Read-outs that look alike come from different tables or passages of the source.",
  "data": [
    {"molecule": "CC(C)C[C@H](NC(=O)C[C@H](O)[C@H](CC(C)C)NC(=O)[C@H](Cc1c[nH]cn1)NC(=O)CNC(=O)[C@@H](NC(=O)[C@H](C)NC(=O)[C@H](Cc1c[nH]c2ccccc12)NC(=O)[C@H](CCC(N)=O)NC(=O)[C@@H](Cc1ccccc1)NC(=O)CN1CCC(NC(=O)OC2CCCc3c(cnnc3-c3ccc(CNC(=O)CN4CCN(CC(=O)O)CCN(CC(=O)O)CCN(CC(=O)O)CC4)cc3)CC2)CC1)C(C)C)C(N)=O", "note": "(some centres unmarked) [[^111In]In-DOTA-Tz-TCO-Pip-AR, metal not drawn]", "values": [
      {"measurement": "Distribution of cell-associated activity (surface-bound vs internalized)", "setting": "PC3 cells", "result": "almost all cell-associated activity corresponded to the membrane-bound fraction"},
      {"measurement": "Maximum cellular uptake", "setting": "PC3 cells; 5 min to 4 h", "result": "around 10 % of the total activity applied per million cells"},
      {"measurement": "logP", "setting": "[1]", "result": "-1.28 ± 0.01"},
      {"measurement": "tissue uptake at 1 h", "setting": "[2]; pancreas, read-out: Pancreas uptake", "result": "2.8 ± 0.5", "unit": "%ID/g"},
      {"measurement": "tissue uptake at 1 h", "setting": "[2]; tumor (PC3 xenograft), read-out: Tumor uptake", "result": "3.2 ± 0.1", "unit": "%ID/g"},
      {"measurement": "Blood uptake", "setting": "[3]; 1 h p.i.", "result": "2. 63 % I.D./g"},
      {"measurement": "Bone uptake", "setting": "[3]; 1 h p.i.", "result": "1. 2 % I.D./g"},
      {"measurement": "Excretion", "setting": "[3]; 1 h p.i.", "result": "63.", "unit": "% I.D."},
      {"measurement": "Heart uptake", "setting": "[3]; 1 h p.i.", "result": "1. 06 % I.D./g"},
      {"measurement": "Intestine uptake", "setting": "[3]; 1 h p.i.", "result": "0. 54 % I.D./g"},
      {"measurement": "Kidneys uptake", "setting": "[3]; 1 h p.i.", "result": "9. 04 % I.D./g"},
      {"measurement": "Liver uptake", "setting": "[3]; 1 h p.i.", "result": "3. 97 % I.D./g"},
      {"measurement": "Lungs uptake", "setting": "[3]; 1 h p.i.", "result": "1. 74 % I.D./g"},
      {"measurement": "Muscle uptake", "setting": "[3]; 1 h p.i.", "result": "0. 64 % I.D./g"},
      {"measurement": "Pancreas uptake", "setting": "[3]; 1 h p.i.", "result": "3. 24 % I.D./g"},
      {"measurement": "Spleen uptake", "setting": "[3]; 1 h p.i.", "result": "0. 98 % I.D./g"},
      {"measurement": "Stomach uptake", "setting": "[3]; 1 h p.i.", "result": "0. 48 % I.D./g"},
      {"measurement": "Tumor uptake", "setting": "[3]; 1 h p.i.", "result": "2. 79 % I.D./g"},
      {"measurement": "Blood uptake", "setting": "[3]; [4]", "result": "3. 11 % I.D./g"},
      {"measurement": "Bone uptake", "setting": "[3]; [4]", "result": "0. 97 % I.D./g"},
      {"measurement": "Excretion", "setting": "[3]; [4]", "result": "60.", "unit": "% I.D."},
      {"measurement": "Heart uptake", "setting": "[3]; [4]", "result": "0. 6 % I.D./g"},
      {"measurement": "Intestine uptake", "setting": "[3]; [4]", "result": "0. 4 % I.D./g"},
      {"measurement": "Kidneys uptake", "setting": "[3]; [4]", "result": "7. 18 % I.D./g"},
      {"measurement": "Liver uptake", "setting": "[3]; [4]", "result": "3. 28 % I.D./g"},
      {"measurement": "Lungs uptake", "setting": "[3]; [4]", "result": "1. 44 % I.D./g"},
      {"measurement": "Muscle uptake", "setting": "[3]; [4]", "result": "0. 63 % I.D./g"},
      {"measurement": "Pancreas uptake", "setting": "[3]; [4]", "result": "1. 67 % I.D./g"},
      {"measurement": "Spleen uptake", "setting": "[3]; [4]", "result": "0. 74 % I.D./g"},
      {"measurement": "Stomach uptake", "setting": "[3]; [4]", "result": "0. 34 % I.D./g"},
      {"measurement": "Tumor uptake", "setting": "[3]; [4]", "result": "1. 38 % I.D./g"},
      {"measurement": "Blood uptake", "setting": "[3]; 2 h p.i.", "result": "0. 16 % I.D./g"},
      {"measurement": "Bone uptake", "setting": "[3]; 2 h p.i.", "result": "0. 13 % I.D./g"},
      {"measurement": "Excretion", "setting": "[3]; 2 h p.i.", "result": "91.", "unit": "% I.D."},
      {"measurement": "Heart uptake", "setting": "[3]; 2 h p.i.", "result": "0. 08 % I.D./g"},
      {"measurement": "Intestine uptake", "setting": "[3]; 2 h p.i.", "result": "0. 09 % I.D./g"},
      {"measurement": "Kidneys uptake", "setting": "[3]; 2 h p.i.", "result": "3. 09 % I.D./g"},
      {"measurement": "Liver uptake", "setting": "[3]; 2 h p.i.", "result": "1. 02 % I.D./g"},
      {"measurement": "Lungs uptake", "setting": "[3]; 2 h p.i.", "result": "0. 18 % I.D./g"},
      {"measurement": "Muscle uptake", "setting": "[3]; 2 h p.i.", "result": "0. 05 % I.D./g"},
      {"measurement": "Pancreas uptake", "setting": "[3]; 2 h p.i.", "result": "0. 28 % I.D./g"},
      {"measurement": "Spleen uptake", "setting": "[3]; 2 h p.i.", "result": "0. 28 % I.D./g"},
      {"measurement": "Stomach uptake", "setting": "[3]; 2 h p.i.", "result": "0. 05 % I.D./g"},
      {"measurement": "Tumor uptake", "setting": "[3]; 2 h p.i.", "result": "1. 13 % I.D./g"}
    ]},
    {"molecule": "CC(C)C[C@H](NC(=O)C[C@H](O)[C@H](CC(C)C)NC(=O)[C@H](Cc1c[nH]cn1)NC(=O)CNC(=O)[C@@H](NC(=O)[C@H](C)NC(=O)[C@H](Cc1c[nH]c2ccccc12)NC(=O)[C@H](CCC(N)=O)NC(=O)[C@@H](Cc1ccccc1)NC(=O)CCOCCOCCOCCOCCNC(=O)OC1CCCc2c(cnnc2-c2ccc(CNC(=O)CCC(C(=O)O)N3CCN(CC(=O)O)CCN(CC(=O)O)CCN(CC(=O)O)CC3)cc2)CC1)C(C)C)C(N)=O", "note": "(some centres unmarked) [[^111In]In-DOTAGA-Tz-TCO-PEG4-AR, metal not drawn]", "values": [
      {"measurement": "remaining at 24 h", "setting": "in vitro", "result": "~70", "unit": "%"},
      {"measurement": "logP", "setting": "[1]", "result": "-1.18 ± 0.05"}
    ]},
    {"molecule": "D-Phe-Gln-Trp-Ala-Val-Gly-His-Sta-Leu-NH2 [AR]", "values": [
      {"measurement": "IC50", "setting": "GRPR", "result": "2.9 ± 0.6", "unit": "nM"}
    ]}
  ]
}
